For experiment [1], the target named is T1, rhPDL2-Fc: fusion protein of the extracellular part of human PD-L2 and mouse Fc gamma 1, R&D Systems Cat … (human; mouse, UniProt Q9BQ51 20-220).
T1 construct: extracellular domain; Bought product, made in NS0 cells; also called PD-L2 ectodomain; PDL2/hFc
T1 sequence (looked up): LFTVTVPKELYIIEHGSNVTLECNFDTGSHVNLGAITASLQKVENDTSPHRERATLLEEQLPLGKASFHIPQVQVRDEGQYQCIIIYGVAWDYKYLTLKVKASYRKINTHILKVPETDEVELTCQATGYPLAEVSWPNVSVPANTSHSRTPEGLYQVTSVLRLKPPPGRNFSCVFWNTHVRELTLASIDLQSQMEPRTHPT
In words: ELISA, purified Nanobody titrated on coated PD-L2-Fc (Example 9), OD 490 nm. How it is done:
In short, 5 μg/ml PD-L2 ectodomain (R&D Systems, Minneapolis, US, Cat #1224-PL) was immobilized on maxisorp microtiter plates (Nunc, Wiesbaden, Germany) and free binding sites were blocked using 4% Marvel in PBS. Next, 10 μl of periplasmic extract containing Nanobody of the different clones in 100 μl 2% Marvel PBST were allowed to bind to the immobilized antigen. […] Binding specificity was determined based on OD values compared to controls having received no Nanobody (low control). 32 out of the 96 selected clones were able to bind to PD-L2 with some specificity.
Clones were selected for recloning in an expression vector derived from pUC119 which contained the LacZ promoter, a resistance gene for ampicillin or carbenicillin, a multicloning site and the gen3 leader sequence. In frame with the Nanobody® coding sequence, the vector coded for a C-terminal c-myc tag and a (His)6 tag. After expression, the obtained Nanobodies were purified via the His-tag on Talon beads. Purified Nanobodies were tested in ELISA for binding to PD-L2 as described.
In general terms: ELISA stands for enzyme-linked immunosorbent assay.

For experiment [2], the target named is T2, rhB7H1-Fc: fusion protein of the extracellular part of human B7-H1 (PD-L1) and mouse Fc gamma 1, R&D Systems … (human; mouse, UniProt Q9NZQ7 19-238).
T2 construct: extracellular domain; Bought product, made in NS0 cells; also called B7-H1 ectodomain; B7H1/hFc
T2 sequence (Q9NZQ7 19-238 limits assumed): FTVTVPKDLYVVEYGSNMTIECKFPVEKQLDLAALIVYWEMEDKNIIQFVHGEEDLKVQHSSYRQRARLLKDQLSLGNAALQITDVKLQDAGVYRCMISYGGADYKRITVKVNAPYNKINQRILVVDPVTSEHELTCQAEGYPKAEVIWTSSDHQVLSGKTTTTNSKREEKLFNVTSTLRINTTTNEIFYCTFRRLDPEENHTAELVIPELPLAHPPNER
Put plainly: ELISA, Nanobody dilution series 1-3125 nM on coated B7H1/hFc, rabbit anti-VHH detection, OD 490 nm (Example 11). The protocol: (§1) In order to check for bispecific binding, the clones selected and screened for PD-L2 binding were tested for binding PD-L1 in an ELISA setup. In short, plates were coated with 100 μl (2 μg/ml) of B7H1/hFc (R&D Systems, Minneapolis, US, Cat #156-B7) in PBS overnight at 4C. After washing, plates were blocked with 4% MPBS for 2 hours on a shaker. A dilution series of Nanobody (1-3125 nM) in 100 μl 2% Marvell/PBS was added and incubated for 1 hour on a shaker. After washing, detection was performed with 100 μl 1:5000 rabbit-anti-VHH in 2% Marvell/PBS for 1 hour on a shaker. After washing, anti-VHH antibody was detected with 100 μl 1:5000 DARPO (in 2% Marvell/PBS for 1 hour on a shaker). PO was detected with 100 μl OPD (add 1:1000 H₂O₂ before use). The reaction was stopped with 50 μl 1 M H₂SO₄ and absorption was read at 490 nm with a platereader.

Experiment [3] concerns the target T1, rhPDL2-Fc: fusion protein of the …. Put plainly: ELISA, Nanobody dilution series 1-3125 nM on coated PDL2/hFc, rabbit anti-VHH detection, OD 490 nm (Example 10). The protocol:
as §1, with “screened for B7-H1 binding were” for “screened for PD-L2 binding were”, “for binding PD-L2 in an” for “for binding PD-L1 in an”, “μg/ml) of PDL2/hFc (R&D Systems,” for “μg/ml) of B7H1/hFc (R&D Systems,”, “US, Cat #1224-PL) in PBS” for “US, Cat #156-B7) in PBS”, “on a shaker, A dilution” for “on a shaker. A dilution”, “with […] and” for “with 50 μl 1 M H₂SO₄ and”

In experiment [4] the target is T2, rhB7H1-Fc: fusion protein of the …. In words: ELISA, purified Nanobody titrated on coated rhB7H1-Fc (Example 5), OD 490 nm. How it is done: In short, 5 μg/ml B7-H1 ectodomain (rhB7H1-Fc, R&D Systems, Minneapolis, US, Cat #156-B7) or control Fc was immobilized on maxisorp microtiter plates (Nunc, Wiesbaden, Germany) and free binding sites were blocked using 4% Marvel in. PBS. […] […] Binding specificity was determined based on OD values compared to controls having received no Nanobody (low control). 17 out of the 96 selected clones were able to bind to B7-H1 with some specificity.

B1: 103E2 (VHH)
VHH: EVQLVESGGGLVQAGGSLRLSCAASGSTFSNYVSNYAMGWGRQAPGTQRELVASISNGDTTNYADSVKGRFTISRDNAKNTVYLQMNSLKPEDTAVYYCFEHQVAGLTWGQGTQVTVSS
notes: also called anti-PDL2 nanobody 103E2
For the molecule B1, the values for the binding result in experiment [1] and in experiment [2] were “binds” and “no binding (tested: 3125 nM)”, respectively.

B2: 104E12 (VHH)
VHH: EVQLVESGGGLVQPGGSLRLSCAASGFTFDYYAIGWFRQAPGKAREGVSCISGGDNSTYYADSVKGRFTISRDNAKNTVYLQMNSLKPEDTAVYYCATGGWKYCSGYDPEYIYWGQGTQVTVSS
notes: also called anti-B7H1 nanobody 104E12
In the case of B2, the binding result in experiment [3] is given as “no binding (tested: 3125 nM)”.

B3: 104D2 (VHH)
VHH: EVQLVESGGGLVQPGGSLRLSCAASGFTLDYYAIGWFRQAPGKEREWASSISSSDGSTYYADSVKGRFTISRDNAKNTVFLQMNSLKPEDTAVYSCAASQAPITIATMMKPFYDYWGQGTQVTVSS
notes: purified via the His-tag; also called anti-B7H1 nanobody 104D2
For B3, the binding result in experiment [4] was “binds”.

B4: 104F5 (VHH)
VHH: EVQLVESGGGLVQPGGSLRLSCAASGFTLDYYAKCWFRQAPGKEREWVSCISSSDGSTYYADSVKGRFTISRDNAKNTVYLQMNSLKPEDTAVYFCAARHGGPLTVEYFFDYWGQGTQVTVSS
notes: purified via the His-tag; also called anti-B7H1 nanobody 104F5
Consider B4, for which the binding result in experiment [3] is listed as “no binding (tested: 3125 nM)”; in experiment [4], “binds”.

B5: 104B10 (VHH)
VHH: EVQLVESGGGLVQAGGSLRLSCAASGSTFSQYDVGWYRQAPGKQRELVAFSSSGGRTIYPDSVKGRFTFSRDNTKNTVYLQMTSLKPEDTAVYYCKIDWYLNSYWGQGTQVTVSS
notes: also called anti-B7H1 nanobody 104B10
With B5, the binding result in experiment [3] and in experiment [4] was “binds” each time.

B6: 103F10 (VHH)
VHH: EVQLVESGGGLVQAGGSLRLSCAASGRTFSSGTMGWFRRAPGKEREFVASIPWSGGRTYYADSVKDRFTISRDNAQNTVFLQMNSLKPEDTAVYYCAFKERSTGWDFASWGQGIQVTVSS
notes: also called anti-PDL2 nanobody 103F10
Turning to B6, the binding result in experiment [1] and in experiment [2] was “binds” throughout.

B7: 103D3 (VHH)
VHH: EVQLVESGGGLVEPGGSLRLSCVASGFTFSSYDMSWVRQAPGKGLEWVSTINSGGGITYRGSVKGRFTISRDNAKNTLYLQMNSLKPEDTAVYYCENGGSSYRRGQGTQVTVSS
notes: also called anti-PDL2 nanobody 103D3
Turning to B7, the results for the binding result in experiment [1] and in experiment [2] were “binds” and “no binding (tested: 3125 nM)”, respectively.

B8: 104D7 (VHH)
VHH: EVQLVESGGGLVQAGGSLTISCAASGITFSDSIVSWYRRARGKQREWVAGISNGGTTKYAESVLGRFTISRDNAKNMVYLQMNGLNPEDTAVYLCKVRQYWGQGTQVTVSS
notes: also called anti-B7H1 nanobody 104D7
A word on the EC50 (read off the curve): it is the midpoint of the concentration-response curve. As to B8, in experiment [3], the “EC50 (read off the curve)” value is around 30 nM. The binding result in experiment [4] is on record as “binds”.

The values above are taken from patent US20110129458A1 (Ablynx, published 2011).
